Here are results for one molecule from patent US20180245075, “INTEGRATED SYSTEM FOR PROGRAMMABLE DNA METHYLATION” (Trustees of Boston University, published 2018).

A value given as a limit tells only on which side of the number the result lay.

One data set addresses ZF10-1-Dam(WT) writer (synthetic; Escherichia coli Dam, UniProt P0AEE8 SEQ:21-472). Briefly: cell_activity; with DpnI-VP64, episomal interspersed reporter. The note with it: tags: NLS, ZF10-1 six-finger array fused to Dam. The protocol:
Reporter plasmid was co-transfected with Writer and Reader-Effector constructs, and single-cell GFP levels were measured with flow cytometry two days post-transfection. […] Specific constructs corresponding to the data below were: Reporter: [8XZF_14XGATC_interspersed] minimal CMV promoter; Writer: minCMV-ZF10-1-Dam (WT); and Reader-Effector: UBC-NLS-DpnI DBD-VP64.
Flow cytometry measurements were performed using an Attune NxT Flow Cytometer (Thermo Fisher Scientific) equipped with a high-throughput auto-sampler. Typically, 50,000 or 70,000 events were acquired for transient transfection or stable cell line experiments, respectively. Cells were gated by forward (FSC) and side scatter (SSC) distributions, and either iRFP or mCherry expression for transfection- or integration-positive populations, respectively. For experiments with transient transfection of synI/synR modules (FIGS. 9A-9C), geometric means of the GFP fluorescence distributions were calculated using FLOWJO (Treestar Software). GFP fold change was then calculated by normalizing mean GFP intensity to reporter-only controls, unless otherwise noted. For spreading and memory experiments (with integrated constructs), the percentage of GFP activated cells was quantified using a GFP+gate that contains ˜0.5-1% of negative control cells (FIG. 17E). […]

The target in data set [1] is ZF10-1-Dam(N132A) writer (synI) (synthetic; Escherichia coli Dam, UniProt P0AEE8 SEQ:21-472). As to the kind of experiment: cell_activity; integrated Clustered Reporter, GATC 140 bp downstream, vs mCherry-Dam; ~6-fold on transient reporter (p253). Particulars: tags: NLS, ZF10-1 six-finger array fused to Dam. Here is the method:
Fraction methylation was measured using m6A-qPCR at a single GATC site proximal to the ZF BS array in the singly integrated Clustered Reporter (6th site, 140 bp downstream from end of ZF array). (n=3; error bars, SD). […] (n=3; error bars, SD). […] Diagonal line represents no enrichment in ZF sequence-specific methylation over “background” methylation. Dam N132A and WT are marked in red and black, respectively. (n=3; error bars, SD). […] Cells were transfected with the indicated constructs: Interspersed Reporter only, ZF-VP64 constitutively expressed from pUBC, synI^NT (Dam WT) constitutively expressed from a strong promoter (pCLPIT with no Dox induction), synI^NT (Dam WT) constitutively expressed from a weak promoter (pMinCMV), and synI^NT (Dam N132A) constitutively expressed from a weak promoter (pMinCMV). Genomic DNA (gDNA) was isolated 2 days following transfection, digested with or without DpnII, run out on an agarose gel (top), and the bands used to quantify total fraction methylated DNA (bottom). Undigested bands appearing at the top of each lane in DpnII-treated samples represent methylated (protected) gDNA, while […] gDNA fragments that are digested by DpnII appear as a smear (from ˜0.3-2 kb). Total fraction methylated gDNA is calculated as undigested gDNA in DpnII-treated samples normalized by total gDNA. […]

B1: ZF10-1 binding sequence (BS), arrayed in reporter (dsDNA)
DNA 1: CGGCGTAGCCGATGTCGCGC
DNA 2: GCGCGACATCGGCTACGCCG
Regarding B1, the activity with ZF10-1-Dam(WT) writer is more than 100 fold GFP activation; in data set [1], approximately 10 fold m6A enrichment.
